One block for each molecule: values may come before it.
How the values were obtained:
soluble EGFR (sEGFR) [1] = target: soluble EGFR (sEGFR) (UniProt P00533); assay: SPR; Biacore 2000; sEGFR immobilised on a CM5 chip at the lower amount (1073 to 1122 RU); PBS with 0.005% Tween20; scFv monomer or dimer injected for 120 s at 10 to 250 nM; global fit, 1:1 Langmuir model
soluble EGFR (sEGFR) [2] = target: soluble EGFR (sEGFR) (UniProt P00533); assay: SPR; Biacore 2000; sEGFR immobilised on a CM5 chip at the higher amount (2605 to 2833 RU); PBS with 0.005% Tween20; scFv monomer or dimer injected for 120 s at 10 to 250 nM; global fit, 1:1 Langmuir model
soluble EGFR (sEGFR) [3] = target: soluble EGFR (sEGFR) (UniProt P00533); assay: SPR; Biacore 2000; sEGFR immobilised on a CM5 chip (amount not given for Tables 2 and 5); running buffer PBS with 0.005% Tween20; scFv monomer or dimer injected for 120 s at 10 to 250 nM; global fit, 1:1 Langmuir model
soluble EGFR (sEGFR) [4] = target: T1, soluble EGFR (sEGFR) (Homo sapiens (assumed; EGFR on human …, UniProt P00533); assay: as above; settings: both partners purified
T1 construct: soluble epidermal growth factor receptor (sEGFR); also called epidermal growth factor receptor; immobilized EGFR; source: prepared as described previously [28]

EGFR on A431 cells = target: T2, EGFR on A431 cells (Homo sapiens (A431 cells), UniProt P00533); assay: flow cytometry on cells; competitive binding: 10^6 A431 cells mixed with non-labeled scFv or dimer (50 pmol), washed, then various amounts of FITC-labeled wild-type h528 scFv added; on ice; settings: one partner purified
T2 construct: epidermal growth factor receptor on A431, a human epidermoid carcinoma line; also called target-expressing cells; A431 (EGFR-positive tumor cell line); source: endogenous, on A431 cells

soluble EGFR (sEGFR) [5] = target: T1, soluble EGFR (sEGFR); assay: SPR; Biacore 2000; sEGFR immobilised on a CM5 chip at the higher amount (2605 to 2833 RU); PBS with 0.005% Tween20; scFv monomer or dimer injected for 120 s at 10 to 250 nM; global fit, 1:1 Langmuir model; settings: both partners purified
soluble EGFR (sEGFR) [6] = target: T1, soluble EGFR (sEGFR); assay: SPR; Biacore 2000; sEGFR immobilised on a CM5 chip at the lower amount (1073 to 1122 RU); PBS with 0.005% Tween20; scFv monomer or dimer injected for 120 s at 10 to 250 nM; global fit, 1:1 Langmuir model; settings: both partners purified

Kd (soluble EGFR (sEGFR) [1]): 78 nM
Molecule: side–side bivalent h528 scFv dimer with C1 linker

Kd (soluble EGFR (sEGFR) [2]): 109 nM
koff (soluble EGFR (sEGFR) [2]): 0.0047 s⁻¹
kon (soluble EGFR (sEGFR) [2]): 43000 M⁻¹ s⁻¹
Kd (soluble EGFR (sEGFR) [1]): 149 nM
koff (soluble EGFR (sEGFR) [1]): 0.005 s⁻¹
kon (soluble EGFR (sEGFR) [1]): 34000 M⁻¹ s⁻¹
Molecule: side–tail bivalent h528 scFv dimer with C1 linker

Kd (soluble EGFR (sEGFR) [2]): 34 nM
Molecule: side–side bivalent h528 scFv dimer with C6 linker

Kd (soluble EGFR (sEGFR) [1]): 159 nM
Molecule: side–tail bivalent h528 scFv dimer with C6 linker

Kd (soluble EGFR (sEGFR) [2]): 23 nM
koff (soluble EGFR (sEGFR) [2]): 0.0015 s⁻¹
kon (soluble EGFR (sEGFR) [2]): 63000 M⁻¹ s⁻¹
Kd (soluble EGFR (sEGFR) [1]): 18 nM
koff (soluble EGFR (sEGFR) [1]): 0.0012 s⁻¹
kon (soluble EGFR (sEGFR) [1]): 62000 M⁻¹ s⁻¹
Molecule: tail–tail bivalent h528 scFv dimer with C6 linker

Kd (soluble EGFR (sEGFR) [3]): 26 nM
koff (soluble EGFR (sEGFR) [3]): 0.0052 s⁻¹
kon (soluble EGFR (sEGFR) [3]): 196000 M⁻¹ s⁻¹
B1: wild-type humanized 528 (h528) scFv (scFv, V domains shown)
VH: QVQLVQSGAEVKKPGASVKVSCKASGYTFTSYWMHWVRQAPGQGLEWMGNIYPGSGGTNYAEKFKNRVTMTRDTSISTAYMELSRLRSDDTAVYYCARSGGPYFFDYWGQGTLVTVSS
VL: DIVMTQSPLSLPVTPGEPASISCRSSQNIVHNNGITYLEWYLQKPGQSPQLLIYKVSDRFSGVPDRFSGSGSGTDFTLKISRVEAEDVGVYYCFQGSHIPPTFGQGTKVEIK

Kd (soluble EGFR (sEGFR) [4]): 137 nM
koff (soluble EGFR (sEGFR) [4]): 0.0082 s⁻¹
kon (soluble EGFR (sEGFR) [4]): 60000 M⁻¹ s⁻¹
B2: 0K h528 scFv (scFv, V domains shown)
VH: QVQLVQSGAEVAEPGASVQVSCAASGYTFTSYWMHWVRQAPGQGLEWMGNIYPGSGGTNYAEEFQNRVTMTRDTSISTAYMELSRLRSDDTAVYYCARSGGPYFFDYWGQGTLVTVSS
VL: DIVMTQSPLSLPVTPGEPASISCRSSQNIVHNNGITYLEWYLQRPGQSPQLLIYQVSDRFSGVPDRFSGSGSGTDFTLTISRVEAEDVGVYYCFQGSHIPPTFGQGTEVEIE
notes: linker (GGGGS)3; it looks like Kabat numbering; also called h528 scFv without lysine in the CDR and FR

Kd (soluble EGFR (sEGFR) [4]): 38 nM
koff (soluble EGFR (sEGFR) [4]): 0.0054 s⁻¹
kon (soluble EGFR (sEGFR) [4]): 141000 M⁻¹ s⁻¹
B3: 0KCDR h528 scFv (scFv, V domains shown)
VH: QVQLVQSGAEVKKPGASVKVSCKASGYTFTSYWMHWVRQAPGQGLEWMGNIYPGSGGTNYAEEFQNRVTMTRDTSISTAYMELSRLRSDDTAVYYCARSGGPYFFDYWGQGTLVTVSS
VL: DIVMTQSPLSLPVTPGEPASISCRSSQNIVHNNGITYLEWYLQKPGQSPQLLIYQVSDRFSGVPDRFSGSGSGTDFTLKISRVEAEDVGVYYCFQGSHIPPTFGQGTKVEIK
notes: linker (GGGGS)3; it looks like Kabat numbering; also called 0KCDR scFv

binding result (EGFR on A431 cells): binds
B4: FITC-labeled wild-type h528 scFv (scFv, V domains shown)
VH: QVQLVQSGAEVKKPGASVKVSCKASGYTFTSYWMHWVRQAPGQGLEWMGNIYPGSGGTNYAEKFKNRVTMTRDTSISTAYMELSRLRSDDTAVYYCARSGGPYFFDYWGQGTLVTVSS
VL: DIVMTQSPLSLPVTPGEPASISCRSSQNIVHNNGITYLEWYLQKPGQSPQLLIYKVSDRFSGVPDRFSGSGSGTDFTLKISRVEAEDVGVYYCFQGSHIPPTFGQGTKVEIK
notes: linker (GGGGS)3; m4 with a fluorescein label; also called fluorescently labeled wild-type scFv; labeled wild-type scFv

Kd (soluble EGFR (sEGFR) [5]): 207 nM
koff (soluble EGFR (sEGFR) [5]): 0.0089 s⁻¹
kon (soluble EGFR (sEGFR) [5]): 43000 M⁻¹ s⁻¹
Kd (soluble EGFR (sEGFR) [6]): 221 nM
koff (soluble EGFR (sEGFR) [6]): 0.0086 s⁻¹
kon (soluble EGFR (sEGFR) [6]): 39000 M⁻¹ s⁻¹
Kd (soluble EGFR (sEGFR) [4]): 205 nM
koff (soluble EGFR (sEGFR) [4]): 0.0086 s⁻¹
kon (soluble EGFR (sEGFR) [4]): 42000 M⁻¹ s⁻¹
B5: LK103-0K h528 scFv (scFv, V domains shown)
VH: QVQLVQSGAEVAEPGASVQVSCAASGYTFTSYWMHWVRQAPGQGLEWMGNIYPGSGGTNYAEEFQNRVTMTRDTSISTAYMELSRLRSDDTAVYYCARSGGPYFFDYWGQGTLVTVSS
VL: DIVMTQSPLSLPVTPGEPASISCRSSQNIVHNNGITYLEWYLQRPGQSPQLLIYQVSDRFSGVPDRFSGSGSGTDFTLTISRVEAEDVGVYYCFQGSHIPPTFGQGTKVEIE
notes: linker (GGGGS)3; lysine kept at L103; also called LK103-0K scFv

Kd (soluble EGFR (sEGFR) [5]): 108 nM
koff (soluble EGFR (sEGFR) [5]): 0.0075 s⁻¹
kon (soluble EGFR (sEGFR) [5]): 69000 M⁻¹ s⁻¹
Kd (soluble EGFR (sEGFR) [6]): 144 nM
koff (soluble EGFR (sEGFR) [6]): 0.0075 s⁻¹
kon (soluble EGFR (sEGFR) [6]): 52000 M⁻¹ s⁻¹
Kd (soluble EGFR (sEGFR) [4]): 135 nM
koff (soluble EGFR (sEGFR) [4]): 0.0079 s⁻¹
kon (soluble EGFR (sEGFR) [4]): 60000 M⁻¹ s⁻¹
B6: HK19-0K h528 scFv (scFv, V domains shown)
VH: QVQLVQSGAEVAEPGASVKVSCAASGYTFTSYWMHWVRQAPGQGLEWMGNIYPGSGGTNYAEEFQNRVTMTRDTSISTAYMELSRLRSDDTAVYYCARSGGPYFFDYWGQGTLVTVSS
VL: DIVMTQSPLSLPVTPGEPASISCRSSQNIVHNNGITYLEWYLQRPGQSPQLLIYQVSDRFSGVPDRFSGSGSGTDFTLTISRVEAEDVGVYYCFQGSHIPPTFGQGTEVEIE
notes: lysine kept at H19; linker (GGGGS)3; 0K scFv with the 19th residue of VH returned to lysine; also called HK19-0K scFv; KH19-0K scFv
